Sequences and labels used below:
B1: wild-type GST–DNA–PKcs (3552–3691 aa) (domain or fragment, UniProt P78527 3552-3691, looked up)
chain: KEFVARIKSKLDQGGVIQDFINALDQLSNPELLFKDWSNDVRAELAKTPVNKKNIEKMYERMYAALGDPKAPGLGAFRRKFIQTFGKEFDKHFGKGGSKLLRMKLSDFNDITNMLLLKMNKDSKPPGNLKECSPWMSDFK
notes: DNA-PKcs residues 3552-3691; also called recombinant wild-type DNA-PKcs; longer amino acid region (3552–3691 aa)
B2: GST-EZH2-C: aa 598–746 (domain or fragment)
chain: not shown
notes: enhancer of zeste 2 PRC2 subunit 2 (EZH2) residues 598-746
B3: GST–DNA–PKcs ARID1A-binding region (3615–3660 aa), wild type (domain or fragment, UniProt P78527 3615-3660, looked up)
chain: AALGDPKAPGLGAFRRKFIQTFGKEFDKHFGKGGSKLLRMKLSDFN
notes: DNA-PKcs residues 3615-3660, printed as 45 amino acids
B4: His–ARID1A–ARM domain (1914–2285 aa) (domain or fragment, UniProt O14497 1914-2285, looked up)
chain: MLSTRSSTLTEDGAKSSEAIKESSKFPFGISPAQSHRNIKILEDEPHSKDETPLCTLLDWQDSLAKRCVCVSNTIRSLSFVPGNDFEMSKHPGLLLILGKLILLHHKHPERKQAPLTYEKEEEQDQGVSCNKVEWWWDCLEMLRENTLVTLANISGQLDLSPYPESICLPVLDGLLHWAVCPSAEAQDPFSTLGPNAVLSPQRLVLETLSKLSIQDNNVDLILATPPFSRLEKLYSTMVRFLSDRKNPVCREMAVVLLANLAQGDSLAARAIAVQKGSIGNLLGFLEDSLAATQFQQSQASLLHMQNPPFEPTSVDMMRRAARALLALAKVDENHSEFTLYESRLLDISVSPLMNSLVSQVICDVLFLIGQS
notes: ARID1A residues 1914-2285 (ARM domain); Limits are printed for the BLI ligand; also called His-tagged ARM domain of ARID1A
B5: GST-POLB (7–53 aa) (domain or fragment)
chain: not shown
notes: DNA polymerase beta residues 7-53; Printed as GAT-POLB in the methods; also called GAT-POLB (7–53 aa); recombinant POLB

What all share (conditions): both partners purified
Assay [1] concerns the target B4. The assay can be described thus: BLI; Octet Red K2; His–ARID1A–ARM domain immobilised on NTA biosensors; GST recombinant proteins as analytes in serial dilutions. On the technique in general: BLI is a label-free optical method that tracks binding on a fibre tip over time.
Assay [2] deals with B4. The assay can be described thus: far-Western, overlay or dot blot; GST-fusion proteins separated by SDS–PAGE, transferred to PVDF, renatured through falling guanidine–HCl, incubated with His–ARID1A–ARM overnight at 4°C, probed with anti-His-tag antibody.
In assay [3] the target is T1, GST-DNTT: aa 1–509 (UniProt P04053 1-509).
T1 construct: DNA nucleotidylexotransferase (DNTT) residues 1-509; also called DNA nucleotidylexotransferase
The description is as above.

T1 sequence (P04053 whole entry, the tested form may be a part): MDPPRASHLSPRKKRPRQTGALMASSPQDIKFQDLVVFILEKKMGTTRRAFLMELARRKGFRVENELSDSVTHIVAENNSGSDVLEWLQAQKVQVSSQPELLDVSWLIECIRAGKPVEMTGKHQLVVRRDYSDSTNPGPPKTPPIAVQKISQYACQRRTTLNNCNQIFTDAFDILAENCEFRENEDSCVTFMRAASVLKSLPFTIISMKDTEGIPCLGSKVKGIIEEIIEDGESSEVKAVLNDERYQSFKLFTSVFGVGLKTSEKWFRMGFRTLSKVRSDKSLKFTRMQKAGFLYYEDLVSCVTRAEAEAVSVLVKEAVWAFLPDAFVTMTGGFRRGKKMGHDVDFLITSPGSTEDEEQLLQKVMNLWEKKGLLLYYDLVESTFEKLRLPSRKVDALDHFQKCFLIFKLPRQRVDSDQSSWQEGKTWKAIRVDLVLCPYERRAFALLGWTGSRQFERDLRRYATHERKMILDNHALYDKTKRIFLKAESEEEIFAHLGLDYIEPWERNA

Take B1: in assay [1], the binding result is listed as “binds”.

As to B2, in assay [2], the binding result is “binds”.

Regarding B3, in assay [2], the binding result was “binds”.

B4: the binding result in assay [3] was “binds”.

Turning to B5, the binding result in assay [1] is “binds”.

These data come from article PMC11904782, “Armadillo domain of ARID1A directly interacts with DNA-PKcs to couple chromatin remodeling with nonhomologous end joining (NHEJ) pathway” (Nucleic Acids Research, 2025).
